Common to all, as to assay: split reporter
One experiment deals with T1, Sil1p (S. cerevisiae, UniProt Q08199 20-421).
T1 sequence: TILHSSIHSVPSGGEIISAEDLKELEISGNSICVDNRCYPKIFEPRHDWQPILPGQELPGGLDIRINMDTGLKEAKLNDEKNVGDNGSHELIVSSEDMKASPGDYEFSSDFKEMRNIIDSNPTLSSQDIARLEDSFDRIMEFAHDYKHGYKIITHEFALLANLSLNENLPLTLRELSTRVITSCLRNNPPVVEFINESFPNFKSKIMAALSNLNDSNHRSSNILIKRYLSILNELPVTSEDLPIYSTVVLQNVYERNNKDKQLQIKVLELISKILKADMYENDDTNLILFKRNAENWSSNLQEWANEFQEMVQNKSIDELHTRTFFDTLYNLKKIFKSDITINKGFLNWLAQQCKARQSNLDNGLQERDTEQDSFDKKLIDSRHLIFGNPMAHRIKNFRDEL

The target in a further experiment is T2, Qcr2p (S. cerevisiae, UniProt P07257 17-368).
T2 sequence: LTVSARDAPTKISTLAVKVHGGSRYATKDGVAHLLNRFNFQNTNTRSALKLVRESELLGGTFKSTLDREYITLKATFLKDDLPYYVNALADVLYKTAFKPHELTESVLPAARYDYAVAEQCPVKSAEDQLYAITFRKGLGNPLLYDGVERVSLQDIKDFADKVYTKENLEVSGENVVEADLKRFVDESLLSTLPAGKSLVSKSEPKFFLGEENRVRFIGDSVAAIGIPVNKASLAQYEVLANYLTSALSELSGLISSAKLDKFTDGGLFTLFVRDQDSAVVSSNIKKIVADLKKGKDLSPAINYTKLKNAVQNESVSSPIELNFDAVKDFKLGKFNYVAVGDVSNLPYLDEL

Another experiment deals with T3, Pdi1p (S. cerevisiae, UniProt P17967 29-522).
T3 sequence: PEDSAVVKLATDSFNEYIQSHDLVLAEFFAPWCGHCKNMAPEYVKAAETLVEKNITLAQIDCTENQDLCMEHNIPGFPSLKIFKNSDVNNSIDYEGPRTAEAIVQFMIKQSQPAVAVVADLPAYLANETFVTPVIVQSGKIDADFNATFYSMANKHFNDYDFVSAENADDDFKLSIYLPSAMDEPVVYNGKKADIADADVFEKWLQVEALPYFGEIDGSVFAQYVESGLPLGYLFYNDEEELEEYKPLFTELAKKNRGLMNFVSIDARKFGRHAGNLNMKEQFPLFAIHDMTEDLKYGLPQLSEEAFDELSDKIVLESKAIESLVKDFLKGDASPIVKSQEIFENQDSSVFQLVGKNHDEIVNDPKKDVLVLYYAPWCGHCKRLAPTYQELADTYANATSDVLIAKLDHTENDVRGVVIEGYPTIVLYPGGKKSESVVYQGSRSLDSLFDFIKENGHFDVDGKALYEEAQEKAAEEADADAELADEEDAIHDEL

Results on one molecule are retold here after publication doi:10.1101/2024.05.21.594841 (bioRxiv, 2024).

B1: Lhs1p (natural protein)
chain: AVLGVDYGQQNIKAIVVSPQAPLELVLTPEAKRKEISGLSIKRLPGYGKDDPNGIERIYGSAVGSLATRFPQNTLLHLKPLLGKSLEDETTVTLYSKQHPGLEMVSTNRSTIAFLVDNVEYPLEELVAMNVQEIANRANSLLKDRDARTEDFVNKMSFTIPDFFDQHQRKALLDASSITTGIEETYLVSEGMSVAVNFVLKQRQFPPGEQQHYIVYDMGSGSIKASMFSILQPEDTTQPVTIEFEGYGYNPHLGGAKFTMDIGSLIENKFLETHPAIRTDELHANPKALAKINQAAEKAKLILSANSEASINIESLINDIDFRTSITRQEFEEFIADSLLDIVKPINDAVTKQFGGYGTNLPEINGVILAGGSSRIPIVQDQLIKLVSEEKVLRNVNADESAVNGVVMRGIKLSNSFKTKPLNVVDRSVNTYSFKLSNESELYDVFTRGSAYPNKTSILTNTTDSIPNNFTIDLFENGKLFETITVNSGAIKNSYSSDKCSSGVAYNITFDLSSDRLFSIQEVNCICQSENDIGNSKQIKNKGSRLAFTSEDVEIKRLSPSERSRLHEHIKLLDKQDKERFQFQENLNVLESNLYDARNLLMDDEVMQNGPKSQVEELSEMVKVYLDWLEDASFDTDPEDIVSRIREIGILKKKIELYMDSAKEPLNSQQFKGMLEEGHKLLQAIETHKNTVEEFLSQFETEFADTIDNVREEFKKIKQPAYVSKALSTWEETLTSFKNSISEIEKFLAKNLFGEDLREHLFEIKLQFDMYRTKLEEKLRLIKSGDESRLNEIKKLHLRNFRLQKRKEEKLKRKLEQEKSRNNNETESTVINSADDKTTIVNDKTTESNPSSEEDILHDEL
Consider B1, for which the normalized interacting score was 93% with Sil1p, 22% with Qcr2p and greater than 40% with Pdi1p.
